Target: T1, TNFR1 (Homo sapiens, UniProt P19438)
T1 chain: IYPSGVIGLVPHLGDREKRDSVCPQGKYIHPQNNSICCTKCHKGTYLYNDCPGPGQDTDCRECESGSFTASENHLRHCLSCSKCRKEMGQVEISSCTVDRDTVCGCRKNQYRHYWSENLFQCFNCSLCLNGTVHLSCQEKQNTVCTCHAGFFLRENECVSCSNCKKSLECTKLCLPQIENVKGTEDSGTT
Assay: yeast display SC50

B1: D59K (designed binder)
chain: MTLQELLREEALRRAEAEAFRYALELLAEKFPEQKEYLLDLAEEIESQIRSLSGVDVEKVRKFLDKEWAWVKELLAEHPAELAEVEAARAARLAELRAEVEAKVAA
**Q.** With B1 as the binder, how does the “apparent Kd (screen)” value read?
**A.** The value was 0.869 nM.

B2: K72A (designed binder)
chain: MTLQELLREEALRRAEAEAFRYALELLAEKFPEQKEYLLDLAEEIESQIRSLSGVDVEDVRKFLDKEWAWVAELLAEHPAELAEVEAARAARLAELRAEVEAKVAA
**Q.** For B2, which “apparent Kd (screen)” value is on record?
**A.** Its value is 0.869 nM.

B3: P32C (designed binder)
chain: MTLQELLREEALRRAEAEAFRYALELLAEKFCEQKEYLLDLAEEIESQIRSLSGVDVEDVRKFLDKEWAWVKELLAEHPAELAEVEAARAARLAELRAEVEAKVAA
**Q.** Which “apparent Kd (screen)” value does the source give for B3 here?
**A.** Its value is 0.539 nM.

B4: L93D (designed binder)
chain: MTLQELLREEALRRAEAEAFRYALELLAEKFPEQKEYLLDLAEEIESQIRSLSGVDVEDVRKFLDKEWAWVKELLAEHPAELAEVEAARAARDAELRAEVEAKVAA
**Q.** How did the “apparent Kd (screen)” value turn out when B4 was run?
**A.** The value was 0.869 nM.

B5: E33V (designed binder)
chain: MTLQELLREEALRRAEAEAFRYALELLAEKFPVQKEYLLDLAEEIESQIRSLSGVDVEDVRKFLDKEWAWVKELLAEHPAELAEVEAARAARLAELRAEVEAKVAA
**Q.** With B5 as the binder, how does the “apparent Kd (screen)” value read?
**A.** Its value is 0.718 nM.

B6: E5A (designed binder)
chain: MTLQALLREEALRRAEAEAFRYALELLAEKFPEQKEYLLDLAEEIESQIRSLSGVDVEDVRKFLDKEWAWVKELLAEHPAELAEVEAARAARLAELRAEVEAKVAA
**Q.** With B6 as the binder, how does the “apparent Kd (screen)” value read?
**A.** The value was 0.79 nM.

B7: I49G (designed binder)
chain: MTLQELLREEALRRAEAEAFRYALELLAEKFPEQKEYLLDLAEEIESQGRSLSGVDVEDVRKFLDKEWAWVKELLAEHPAELAEVEAARAARLAELRAEVEAKVAA
**Q.** B7 was tested. Which “apparent Kd (screen)” value did it give?
**A.** Its value is 1.05 nM.

B8: L52K (designed binder)
chain: MTLQELLREEALRRAEAEAFRYALELLAEKFPEQKEYLLDLAEEIESQIRSKSGVDVEDVRKFLDKEWAWVKELLAEHPAELAEVEAARAARLAELRAEVEAKVAA
**Q.** With B8 as the binder, how does the “apparent Kd (screen)” value read?
**A.** Its value is 1.05 nM.

B9: K35M (designed binder)
chain: MTLQELLREEALRRAEAEAFRYALELLAEKFPEQMEYLLDLAEEIESQIRSLSGVDVEDVRKFLDKEWAWVKELLAEHPAELAEVEAARAARLAELRAEVEAKVAA
**Q.** For B9, which “apparent Kd (screen)” value is on record?
**A.** The value was 0.446 nM.

B10: E18F (designed binder)
chain: MTLQELLREEALRRAEAFAFRYALELLAEKFPEQKEYLLDLAEEIESQIRSLSGVDVEDVRKFLDKEWAWVKELLAEHPAELAEVEAARAARLAELRAEVEAKVAA
**Q.** Which “apparent Kd (screen)” value does the source give for B10 here?
**A.** Its value is 0.539 nM.

B11: E81P (designed binder)
chain: MTLQELLREEALRRAEAEAFRYALELLAEKFPEQKEYLLDLAEEIESQIRSLSGVDVEDVRKFLDKEWAWVKELLAEHPAPLAEVEAARAARLAELRAEVEAKVAA
**Q.** B11 was tested. Which “apparent Kd (screen)” value did it give?
**A.** Its value is 0.718 nM.

B12: S47F (designed binder)
chain: MTLQELLREEALRRAEAEAFRYALELLAEKFPEQKEYLLDLAEEIEFQIRSLSGVDVEDVRKFLDKEWAWVKELLAEHPAELAEVEAARAARLAELRAEVEAKVAA
**Q.** How did the “apparent Kd (screen)” value turn out when B12 was run?
**A.** Its value is 0.49 nM.

B13: L93W (designed binder)
chain: MTLQELLREEALRRAEAEAFRYALELLAEKFPEQKEYLLDLAEEIESQIRSLSGVDVEDVRKFLDKEWAWVKELLAEHPAELAEVEAARAARWAELRAEVEAKVAA
**Q.** How did the “apparent Kd (screen)” value turn out when B13 was run?
**A.** Its value is 0.539 nM.

B14: Q34N (designed binder)
chain: MTLQELLREEALRRAEAEAFRYALELLAEKFPENKEYLLDLAEEIESQIRSLSGVDVEDVRKFLDKEWAWVKELLAEHPAELAEVEAARAARLAELRAEVEAKVAA
**Q.** With B14 as the binder, how does the “apparent Kd (screen)” value read?
**A.** Its value is 0.539 nM.
